B1: CDC25A (parent)
chain: TVAGKHQDLKYISPEIMASVLNGK

Variants of: B1
Test: protein stability index of a GFP-peptide fusion (GPS, HEK-293T) (PSI 1-6); higher = more stable
Details: c terminus: a fixed tail appended
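Also: lentivirally expressed fusions sorted by FACS into six bins by GFP to DsRed ratio, PSI derived from sequencing read proportions per bin multiplied by bin number.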

Q: Which protein stability index does the source give for TVAGKHQSLKYISPEIMASVLNGK [D8S] here?
A: 2.63

Q: For TVAGKHQQLKYISPEIMASVLNGK [D8Q], which protein stability index is on record?
A: 2.5

Q: With TVAGKHQWLKYISPEIMASVLNGK [D8W] as the variant, how does the protein stability index read?
A: 1.68

Q: For TVAGKHQPLKYISPEIMASVLNGK [D8P], which protein stability index is on record?
A: 2.91

Q: With TVAGKHQNLKYISPEIMASVLNGK [D8N] as the variant, how does the protein stability index read?
A: 2.62

Q: Which protein stability index does the source give for TVAGKHQTLKYISPEIMASVLNGK [D8T] here?
A: 2.56

Q: For TVAGKHQKLKYISPEIMASVLNGK [D8K], which protein stability index is on record?
A: 2.54

Q: Which protein stability index does the source give for TVAGKHQALKYISPEIMASVLNGK [D8A] here?
A: 2.65

Q: Which protein stability index does the source give for TVAGKHQYLKYISPEIMASVLNGK [D8Y] here?
A: 1.9

Q: Which protein stability index does the source give for TVAGKHQILKYISPEIMASVLNGK [D8I] here?
A: 2.35

Q: Which protein stability index does the source give for TVAGKHQGLKYISPEIMASVLNGK [D8G] here?
A: 3.06

Q: With TVAGKHQCLKYISPEIMASVLNGK [D8C] as the variant, how does the protein stability index read?
A: 2.32

Q: With TVAGKHQVLKYISPEIMASVLNGK [D8V] as the variant, how does the protein stability index read?
A: 2.66

Q: For TVAGKHQMLKYISPEIMASVLNGK [D8M], which protein stability index is on record?
A: 2.25

Q: With TVAGKHQFLKYISPEIMASVLNGK [D8F] as the variant, how does the protein stability index read?
A: 1.87

Q: With TVAGKHQLLKYISPEIMASVLNGK [D8L] as the variant, how does the protein stability index read?
A: 2.05

Q: For TVAGKHQHLKYISPEIMASVLNGK [D8H], which protein stability index is on record?
A: 2.51

Q: With TVAGKHQRLKYISPEIMASVLNGK [D8R] as the variant, how does the protein stability index read?
A: 2.28

Q: For TVAGKHQELKYISPEIMASVLNGK [D8E], which protein stability index is on record?
A: 3.21

Q: For YVAGKHQDLKYISPEIMASVLNGK [T1Y], which protein stability index is on record?
A: 3.42

Q: Which protein stability index does the source give for TVAWKHQDLKYISPEIMASVLNGK [G4W] here?
A: 2.27

Q: For TVANKHQDLKYISPEIMASVLNGK [G4N], which protein stability index is on record?
A: 3.54

Q: For TVAYKHQDLKYISPEIMASVLNGK [G4Y], which protein stability index is on record?
A: 3.09

Q: For TVASKHQDLKYISPEIMASVLNGK [G4S], which protein stability index is on record?
A: 3.39

Q: For TVATKHQDLKYISPEIMASVLNGK [G4T], which protein stability index is on record?
A: 3.11

Q: With TVAQKHQDLKYISPEIMASVLNGK [G4Q] as the variant, how does the protein stability index read?
A: 3.42

Q: For TVAHKHQDLKYISPEIMASVLNGK [G4H], which protein stability index is on record?
A: 3.35

Q: Which protein stability index does the source give for TVAIKHQDLKYISPEIMASVLNGK [G4I] here?
A: 2.68

Q: With TVADKHQDLKYISPEIMASVLNGK [G4D] as the variant, how does the protein stability index read?
A: 3.27

Q: Which protein stability index does the source give for TVALKHQDLKYISPEIMASVLNGK [G4L] here?
A: 3.16

Q: For TVARKHQDLKYISPEIMASVLNGK [G4R], which protein stability index is on record?
A: 3.5

Q: With TVAPKHQDLKYISPEIMASVLNGK [G4P] as the variant, how does the protein stability index read?
A: 3.44

Q: Which protein stability index does the source give for TVAKKHQDLKYISPEIMASVLNGK [G4K] here?
A: 3.06

Q: For TVACKHQDLKYISPEIMASVLNGK [G4C], which protein stability index is on record?
A: 2.82

Q: With TVAVKHQDLKYISPEIMASVLNGK [G4V] as the variant, how does the protein stability index read?
A: 3.38

Q: For TVAFKHQDLKYISPEIMASVLNGK [G4F], which protein stability index is on record?
A: 2.38

Q: Which protein stability index does the source give for TVAAKHQDLKYISPEIMASVLNGK [G4A] here?
A: 2.82

Q: Which protein stability index does the source give for TVAEKHQDLKYISPEIMASVLNGK [G4E] here?
A: 3.78

Q: Which protein stability index does the source give for TVAMKHQDLKYISPEIMASVLNGK [G4M] here?
A: 2.89

Q: For TVAGLHQDLKYISPEIMASVLNGK [K5L], which protein stability index is on record?
A: 3.06

Q: For TVAGPHQDLKYISPEIMASVLNGK [K5P], which protein stability index is on record?
A: 3.17

Q: For TVAGRHQDLKYISPEIMASVLNGK [K5R], which protein stability index is on record?
A: 3.2

Q: With TVAGDHQDLKYISPEIMASVLNGK [K5D] as the variant, how does the protein stability index read?
A: 3.56

Q: Which protein stability index does the source give for TVAGGHQDLKYISPEIMASVLNGK [K5G] here?
A: 3.6

Q: With TVAGIHQDLKYISPEIMASVLNGK [K5I] as the variant, how does the protein stability index read?
A: 2.55

Q: With TVAGQHQDLKYISPEIMASVLNGK [K5Q] as the variant, how does the protein stability index read?
A: 3.53

Q: For TVAGSHQDLKYISPEIMASVLNGK [K5S], which protein stability index is on record?
A: 3.5

Q: For TVAGYHQDLKYISPEIMASVLNGK [K5Y], which protein stability index is on record?
A: 3.03

Q: With TVAGMHQDLKYISPEIMASVLNGK [K5M] as the variant, how does the protein stability index read?
A: 3.01

Q: With TVAGEHQDLKYISPEIMASVLNGK [K5E] as the variant, how does the protein stability index read?
A: 3.5

Q: For TVAGAHQDLKYISPEIMASVLNGK [K5A], which protein stability index is on record?
A: 3.45

Q: Which protein stability index does the source give for TVAGFHQDLKYISPEIMASVLNGK [K5F] here?
A: 3.2

Q: With TVAGWHQDLKYISPEIMASVLNGK [K5W] as the variant, how does the protein stability index read?
A: 2.75

Q: With TVAGVHQDLKYISPEIMASVLNGK [K5V] as the variant, how does the protein stability index read?
A: 3.21

Q: Which protein stability index does the source give for TVAGHHQDLKYISPEIMASVLNGK [K5H] here?
A: 3.54

Q: For TVAGNHQDLKYISPEIMASVLNGK [K5N], which protein stability index is on record?
A: 3.07

Q: Which protein stability index does the source give for TVAGTHQDLKYISPEIMASVLNGK [K5T] here?
A: 3.68

Q: For TVAGCHQDLKYISPEIMASVLNGK [K5C], which protein stability index is on record?
A: 2.61

Q: With TVAGKHQDLKRISPEIMASVLNGK [Y11R] as the variant, how does the protein stability index read?
A: 3.59

Q: For TVAGKHQDLKMISPEIMASVLNGK [Y11M], which protein stability index is on record?
A: 3.16

Q: With TVAGKHQDLKPISPEIMASVLNGK [Y11P] as the variant, how does the protein stability index read?
A: 3.95

Q: Which protein stability index does the source give for TVAGKHQDLKNISPEIMASVLNGK [Y11N] here?
A: 3.86

Q: With TVAGKHQDLKIISPEIMASVLNGK [Y11I] as the variant, how does the protein stability index read?
A: 3.52

Q: For TVAGKHQDLKSISPEIMASVLNGK [Y11S], which protein stability index is on record?
A: 3.71

Q: With TVAGKHQDLKLISPEIMASVLNGK [Y11L] as the variant, how does the protein stability index read?
A: 3.26

Q: For TVAGKHQDLKKISPEIMASVLNGK [Y11K], which protein stability index is on record?
A: 3.53

Q: Which protein stability index does the source give for TVAGKHQDLKEISPEIMASVLNGK [Y11E] here?
A: 4.09

Q: With TVAGKHQDLKQISPEIMASVLNGK [Y11Q] as the variant, how does the protein stability index read?
A: 3.47

Q: With TVAGKHQDLKCISPEIMASVLNGK [Y11C] as the variant, how does the protein stability index read?
A: 3.32

Q: For TVAGKHQDLKGISPEIMASVLNGK [Y11G], which protein stability index is on record?
A: 3.87

Q: With TVAGKHQDLKHISPEIMASVLNGK [Y11H] as the variant, how does the protein stability index read?
A: 3.73

Q: For TVAGKHQDLKAISPEIMASVLNGK [Y11A], which protein stability index is on record?
A: 3.29

Q: With TVAGKHQDLKFISPEIMASVLNGK [Y11F] as the variant, how does the protein stability index read?
A: 2.77

Q: With TVAGKHQDLKDISPEIMASVLNGK [Y11D] as the variant, how does the protein stability index read?
A: 4.38

Q: With TVTGKHQDLKYISPEIMASVLNGK [A3T] as the variant, how does the protein stability index read?
A: 3.31

Q: With TVIGKHQDLKYISPEIMASVLNGK [A3I] as the variant, how does the protein stability index read?
A: 2.61

Q: With TVKGKHQDLKYISPEIMASVLNGK [A3K] as the variant, how does the protein stability index read?
A: 3.41

Q: With TVVGKHQDLKYISPEIMASVLNGK [A3V] as the variant, how does the protein stability index read?
A: 3.38

Q: With TVPGKHQDLKYISPEIMASVLNGK [A3P] as the variant, how does the protein stability index read?
A: 3.52

Q: With TVWGKHQDLKYISPEIMASVLNGK [A3W] as the variant, how does the protein stability index read?
A: 2.16

Q: Which protein stability index does the source give for TVRGKHQDLKYISPEIMASVLNGK [A3R] here?
A: 2.85

Q: Which protein stability index does the source give for TVDGKHQDLKYISPEIMASVLNGK [A3D] here?
A: 3.74

Q: For TVNGKHQDLKYISPEIMASVLNGK [A3N], which protein stability index is on record?
A: 2.79

Q: For TVQGKHQDLKYISPEIMASVLNGK [A3Q], which protein stability index is on record?
A: 2.7

Q: Which protein stability index does the source give for TVHGKHQDLKYISPEIMASVLNGK [A3H] here?
A: 2.85

Q: With TVSGKHQDLKYISPEIMASVLNGK [A3S] as the variant, how does the protein stability index read?
A: 2.93

Q: With TVLGKHQDLKYISPEIMASVLNGK [A3L] as the variant, how does the protein stability index read?
A: 2.69

Q: With TVGGKHQDLKYISPEIMASVLNGK [A3G] as the variant, how does the protein stability index read?
A: 3.14

Q: Which protein stability index does the source give for TVMGKHQDLKYISPEIMASVLNGK [A3M] here?
A: 2.82

Q: With TVFGKHQDLKYISPEIMASVLNGK [A3F] as the variant, how does the protein stability index read?
A: 2.56

Q: Which protein stability index does the source give for TVYGKHQDLKYISPEIMASVLNGK [A3Y] here?
A: 2.79

Q: For TVEGKHQDLKYISPEIMASVLNGK [A3E], which protein stability index is on record?
A: 3.39

Q: Which protein stability index does the source give for TVCGKHQDLKYISPEIMASVLNGK [A3C] here?
A: 2.47

Q: For TVAGKHFDLKYISPEIMASVLNGK [Q7F], which protein stability index is on record?
A: 2.3
